Laboratory results: paper PMC6363788, “Crystal structures of human lysosomal EPDR1 reveal homology with the superfamily of bacterial lipoprotein transporters” (Communications Biology, 2019)

Biological target: the molecule itself
Assay: SEC; in solution; the only column and buffer told are those of the purification step (Superdex200 16/60, 10 mM Tris-HCl pH 8.0, 100 mM NaCl)

B1: Human EPDR1 (ependymin-related protein 1), glycosylated (natural protein, UniProt Q9UM22-1 38-224, looked up)
chain: APRPCQAPQQWEGRQVMYQQSSGRNSRALLSYDGLNQRVRVLDERKALIPCKRLFEYILLYKDGVMFQIDQATKQCSKMTLTQPWDPLDIPQNSTFEDQYSIGGPQEQITVQEWSDRKSARSYETWIGIYTVKDCYPVQETFTINYSVILSTRFFDIQLGIKDPSVFTPPSTCQMAQLEKMSEDCSW
modifications: N-glycan at Asn130; disulfide bonds C42/C172, C113/C210, C88/C222
notes: EPDR1 (MERP-1; UCC1), human, Uniprot Q9UM22, residues 38-224; The N-terminal tag of the PB-T-PAF plasmid (secretion signal, protein A tag, thrombin site) was removed with thrombin; The six C-terminal histidines have no stated cleavage site, and the protein went through a second Ni2+ step after thrombin, so they were probably kept; also called MERP-1; UCC1; not shown: protein A, N-terminal, cleaved
- stoichiometry N: 2
